Values of other authors, collected in patent publication US8691960B2, “Oxidoreductases for enantioselective reactions” (Duke University, priority 2012, dated 2014).

Settings: literature (Dang et al. 2009; Gross et al. 2010)

**Q.** For “HsIDH1-R132C: human cytosolic NADP+-dependent isocitrate dehydrogenase (HsIDH1) R132C cancer mutant”, which “lowering of Vmax for neomorphic activity relative to HsIDH1-R132H” value is on record?
**A.** The value was 2 fold.
